From US20260115279A1 (VIB VZW, published 2026)

Assays:
[1] = biological target: BamA, E. coli, untagged (endogenous, or co-expressed from pSlyB-BamA with its native signal peptide) (E. coli, UniProt P0A940 21-810); experiment: cell-based or functional assay
[2] = biological target: the molecule itself; experiment: α-SlyB Western of semi-native PAGE of whole cell lysate, with or without 1 mM EDTA

Row | Protein | cellular thermal shift assay (CETSA) on cells treated with EDTA: melting temperature of BamA in ΔslyB mutant versus WT cells [1] [°C] | binding result [2]
1 | SlyB, native (endogenous) lipoprotein of E. coli (other, N-terminal Cys18 carries the lipid anchor) CVNNDTLSGDVYTASEAKQVQNVSYGTIVNVRPVQIQGGDDSNVIGAIGGAVLGGFLGNTVGGGTGRSLATAAGAVAGGVAGQGVQSAMNKTQGVELEIRKDDGNTIMVVQKQGNTRFSPGQRVVLASNGSQVTVSPR | ~4 | –
2 | SlyB^PL, SlyB mutant I65A/V69A/F73A with disrupted outer leaflet phospholipid binding site (other, whole, on cells; Tested in whole cell lysates and membrane fractions) CVNNDTLSGDVYTASEAKQVQNVSYGTIVNVRPVQIQGGDDSNVIGAAGGAALGGALGNTVGGGTGRSLATAAGAVAGGVAGQGVQSAMNKTQGVELEIRKDDGNTIMVVQKQGNTRFSPGQRVVLASNGSQVTVSPR | – | no binding
